These results are taken from PMC7913695, “Mechanism of DNA cleavage by the endonuclease SauUSI: a major barrier to horizontal gene transfer and antibiotic resistance in Staphylococcus aureus”.

The target of data set [1] is SauUSI (Staphylococcus aureus). The experiment in a line: SEC-MALS; 1 mg/ml SauUSI injected on Superdex 200 in 50 mM Tris-HCl pH 8, 50 mM NaCl, 1 mM DTT.
For another data set, the target named is T1, SauUSI (Staphylococcus aureus, UniProt Q2FVC3 1-953).
T1 sequence: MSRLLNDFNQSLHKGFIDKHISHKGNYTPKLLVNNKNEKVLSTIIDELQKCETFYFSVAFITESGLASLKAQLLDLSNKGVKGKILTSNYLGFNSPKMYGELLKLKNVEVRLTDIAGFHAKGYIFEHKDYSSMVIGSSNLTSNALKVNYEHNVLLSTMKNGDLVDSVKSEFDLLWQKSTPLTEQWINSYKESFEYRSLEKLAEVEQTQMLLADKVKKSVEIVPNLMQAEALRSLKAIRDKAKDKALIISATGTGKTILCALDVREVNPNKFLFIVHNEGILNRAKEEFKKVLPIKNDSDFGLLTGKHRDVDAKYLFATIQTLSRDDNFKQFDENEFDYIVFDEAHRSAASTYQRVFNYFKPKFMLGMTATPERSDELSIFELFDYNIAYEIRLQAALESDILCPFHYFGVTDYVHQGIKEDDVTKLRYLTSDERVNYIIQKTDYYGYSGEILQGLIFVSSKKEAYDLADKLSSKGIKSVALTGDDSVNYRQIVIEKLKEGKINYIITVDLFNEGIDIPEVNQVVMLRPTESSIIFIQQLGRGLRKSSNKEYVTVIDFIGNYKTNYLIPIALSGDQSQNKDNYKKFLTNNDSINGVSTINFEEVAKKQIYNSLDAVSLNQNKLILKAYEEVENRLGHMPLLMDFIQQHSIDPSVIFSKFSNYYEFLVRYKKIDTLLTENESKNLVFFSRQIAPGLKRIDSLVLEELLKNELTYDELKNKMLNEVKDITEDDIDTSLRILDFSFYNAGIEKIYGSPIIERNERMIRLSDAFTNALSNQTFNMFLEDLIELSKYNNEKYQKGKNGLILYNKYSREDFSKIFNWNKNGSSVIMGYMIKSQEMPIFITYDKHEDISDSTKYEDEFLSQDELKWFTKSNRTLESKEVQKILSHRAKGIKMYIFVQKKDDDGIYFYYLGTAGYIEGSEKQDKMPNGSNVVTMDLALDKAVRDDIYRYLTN
The experiment in a line: EMSA; 250 nM DNA; shift first detected at 0.1 uM SauUSI (0.05-1.6 uM tested); Protein and DNA incubated 20 min on ice; 5% native PAGE, ethidium bromide stain; binding buffer, salt and pH not stated. Particulars: protein: recombinant; tags: His-tag (HisTrap purified); chain copies: 2; blunt. (In general: In EMSA bound probe runs differently from free probe, usually more slowly.)

Take SauUSI (enzyme): the stoichiometry N in data set [1] came to 2.

B1: EMSA methylated 60 bp (specific DNA) (dsDNA)
DNA 1: GCCGCGGATCCTTCACAAGACGATTACCGGCGCTGAAAGACCAGCATATGCAATTTGACT
DNA 2: AGTCAAATTGCATATGCTGGTCTTTCAGCGCCGGTAATCGTCTTGTGAAGGATCCGCGGC
modifications: 5-methyl-dC at position 28 of strand 1 and position 31 of strand 2 (both strands)
As to B1, the binding result in the data set with SauUSI is “binds”.

What is called stoichiometry N is the number of molecules, sites or subunits per partner or assembly.
